The subject of one experiment is cellular chromatin. As to the kind of experiment: Chromatin appearance in inducible cell lines (immunofluorescence, DAPI). The class given is cell-based. Particulars: inducible expression. From the text:
Primary small airway epithelial cells (SAECs), U2OS, HeLa, 293, THP-1 and A549 cells were obtained from the American Tissue Culture Collection (ATCC) and grown according to the provider's instructions. Acceptor cells for generation of inducible cell lines were used as reported (Khandelia et al. (2011) Proc. Natl. Acad. Sci., 108:12799-12804). Protein VII, preVII and V were cloned from genomic DNA isolated from HeLa cells infected with adenovirus type 5 and inserted into the inducible plasmid cassette with a C-terminal HA tag using restriction enzymes BsrGI and AgeI. Positive clones were selected in DH5a cells, sequenced, and transfected into A549, U2OS or HeLa acceptor cells along with plasmid expressing the Cre recombinase. Recombined clones were selected by puromycin resistance (1 μg/mL) and induced with doxycycline (0.2 μg/mL) to express the desired protein. Protein expression was verified by immunofluorescence and western blot. All figures shown are after 4 days of induction unless otherwise stated. Protein VII and preVII were also verified by HPLC purification and mass spectrometry analysis. Point mutations were generated by gene synthesis from Genewiz.
Cells were grown on glass coverslips in 24-well plates and either infected or induced with doxycycline (0.2 μg/mL). […]

For experiment [1], the target named is T1, HMGB1 (Homo sapiens, UniProt P09429).
T1 sequence (P09429 1-215): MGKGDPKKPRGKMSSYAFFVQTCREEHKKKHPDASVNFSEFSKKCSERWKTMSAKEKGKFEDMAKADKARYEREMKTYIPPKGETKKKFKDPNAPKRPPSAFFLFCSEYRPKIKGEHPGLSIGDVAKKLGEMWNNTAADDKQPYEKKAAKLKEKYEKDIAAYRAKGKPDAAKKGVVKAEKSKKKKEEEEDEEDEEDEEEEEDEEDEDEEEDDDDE
Kind of experiment: In vitro binding assay: recombinant protein VII-His with HMGB1-GST, cobalt resin pull-down. The conditions noted are these: equimolar HMGB1-GST and protein VII-His. On the procedure:
HMGB1-GST (Abnova) or GST (Sigma) were combined with recombinant protein VII-His at equimolar ratios and incubated at 4° C. for 1 hour. Complexes were then mixed with a cobalt resin (ThermoScientific 89964) to bind protein VII-His and any associated protein and washed three times in the binding buffer (50 mM Tris pH 8, 300 mM NaCl, 0.1% IGEPAL). The beads were then boiled in sample buffer, separated on a 4-12% NuPage gel and visualized by coomassie staining.

For another experiment, the system named is DNA. Kind of experiment: Gel shift of recombinant protein VII-His with 195 bp DNA. The class given is binding. Particulars: purified recombinant protein. On the procedure:
Gel shift and MNase digestion assays were carried out as described (Falk et al. (2015) Science 348:699-703; Hasson et al. (2013) Nat. Struct. Mol. Biol., 20:687-695; Sekulic et al. (2010) Nature 467:347-351). Briefly, nucleosomes were reconstituted by incubating purified recombinant histones with ‘601’ DNA of either 195 or 147 bp over a series of dialysis. Recombinant protein VII-His was then combined with nucleosomes at various molar ratios, incubated at room temperature for 15 minutes, and analyzed by native gel electrophoresis. Complexes were also digested with MNase (Affymetrix) by addition of 1 unit per μg of DNA for 147 bp nucleosome experiments and 0.1 unit per μg of DNA for 195 bp nucleosome experiments, incubated at 22° C. for varying amounts of time followed by the addition of EGTA and guanidine thiocyanate to stop the reaction. The DNA fragments were then purified using a MinElute PCR purification kit (Qiagen) and analyzed on an Agilent 2100 Bioanalyzer as described (Falk et al. (2015) Science 348:699-703).
A general note: A gel shift assay detects complexes by their altered migration in electrophoresis.

The target in another experiment is T2, HMGB2 (Homo sapiens, UniProt P26583).
T2 construct: endogenous in cells; host or cells: THP-1 (PMA-differentiated)
T2 sequence (P26583 1-209): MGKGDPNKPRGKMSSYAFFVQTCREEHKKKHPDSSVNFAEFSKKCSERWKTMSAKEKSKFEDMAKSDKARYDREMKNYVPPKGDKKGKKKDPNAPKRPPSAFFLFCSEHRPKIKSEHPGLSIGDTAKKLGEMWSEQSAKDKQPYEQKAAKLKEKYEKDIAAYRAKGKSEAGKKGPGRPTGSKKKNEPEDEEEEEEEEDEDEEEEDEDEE
Kind of experiment: Release assay of HMGB2 in THP-1 cells. Format: cell-based. The conditions noted are these: PMA-treated THP-1 cells, LPS plus nigericin. The method, then: (§1) THP-1 cells were seeded at a density of 2×10^5 cells per well in a 24-well plate, and stimulated into macrophage-like cells by addition of 10 ng/mL PMA for 48 hours. Cells were washed in PBS and transduced with recombinant adenovirus vectors expressing only GFP or protein VII-GFP such that >90% of cells were GFP positive. At 48 hours post transduction, cells were washed and 200 μL of serum free RPMI was added. To stimulate the inflammasome, LPS (Sigma-Aldrich L2880) with a final concentration of 0.5 μg/mL was added to wells and incubated for 2 hours, then nigericin (Sigma-Aldrich N7143) was added with a final concentration of 10 μM for 1 hour. Supernatants were collected and proteins precipitated overnight at 4° C. with a final concentration of 20% trichloroacetic acid (Sigma), washed with acetone, dried, and resuspended in 1×sample buffer with reducing agent (Invitrogen). For ELISA analysis, supernatants were harvested directly and HMGB1 content was detected by the manufacturer's instructions (Chondrex 6010). Cells were also harvested by the addition of 1×sample buffer with reducing agent (Invitrogen) and boiled. Supernatants and lysates were analyzed together by western blot.

The next experiment concerns LPS induced lung injury. As to the kind of experiment: Murine model of LPS induced lung injury, BAL fluid analysis. The class given is in vivo, mouse. The conditions noted are these: 24 hours after LPS exposure, versus mice expressing GFP. On the procedure:
All mice were housed in SPF conditions. All studies in mice were carried out in accordance with the recommendations in the Guide for the Care and Use of Laboratory Animals of the National Institutes of Health. C57BL/6J male mice aged 8-10 weeks were used for experiments. Mice were sedated with ketamine and xylazine. Once sedated, mice underwent orotrachial intubation, as described (Das et al. (2013) J. Vis. Exp., (73):e50318), with a 20G angiocatheter from BD (Franklin Lakes, N.J.). Mice subsequently received 5e10 GC of recombinant adenovirus expressing VII-GFP or GFP purified as described above. Four days after infection, mice were exposed to aerosolized LPS, 3 mg/mL for 30 minutes as described (Jeyaseelan et al. (2004) Infect. Immun., 72:7247-7256). One day after LPS exposure, BAL, and lung tissue were harvested as detailed (Nick et al. (2000) J. Immunol., 164:2151-2159) and examined for HMGB1 content (ELISA, Chondrex 6010) and neutrophil count (hematoxylin and eosin stain kit EMD 65044/93). Immunostaining was carried out using standard methods. A minimum of four biological replicates were used for each condition studied. Mice were assigned a random number and color at the start of the experiment and were randomized. Technicians carrying out the experiments were blinded to the identity of the samples. Tissue samples were assigned a random study number such that the technician performing the analysis was blinded. Unblinding for the purpose of data analysis occurred only after all data had been collected.

The next experiment concerns the target T3, mouse HMGB1 (Mus musculus, UniProt P63158).
T3 construct: endogenous in cells; host or cells: mouse embryonic fibroblasts (MEF)
T3 sequence (P63158 1-215): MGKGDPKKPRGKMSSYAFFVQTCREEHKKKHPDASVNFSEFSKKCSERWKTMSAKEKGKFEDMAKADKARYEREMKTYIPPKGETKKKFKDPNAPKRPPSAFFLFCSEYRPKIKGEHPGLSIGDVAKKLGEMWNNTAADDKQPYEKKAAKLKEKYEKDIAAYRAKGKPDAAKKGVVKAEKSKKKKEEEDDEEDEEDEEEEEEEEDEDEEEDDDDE
As to the kind of experiment: Mouse embryonic fibroblast (MEF) cells transduced to express protein VII-GFP: immunofluorescence and salt fractionation. The class given is cell-based. The method, then: Cells were grown on glass coverslips in 24-well plates and either infected or induced with doxycycline (0.2 μg/mL). Cells were harvested for immunofluorescence at the indicated time points, washed in phosphate-buffered saline (PBS), fixed in 4% paraformaldehyde for 15 minutes and post-fixed with 100% ice-cold methanol for 5 minutes. Coverslips were then blocked and stained as described (Lilley et al. (2011) PLoS Pathog., 7:e1002084) and mounted using ProLong Gold Antifade Reagent (Life Technologies). Immunofluorescence was visualized using a Zeiss LSM Confocal microscope and ZEN 2011 software. Images were processed using ImageJ and assembled with Adobe CS6. All scale bars show in the Figures are 10 μm unless otherwise stated.
Salt fractionation of nuclei was adapted from established protocols (Zaret, K. (2005) Micrococcal nuclease analysis of chromatin structure. Curr. Protoc. Mol., Biol. Chapter 21, Unit 21.1; Teves et al. (2012) Methods Mol. Biol., 833:421-432). […] The final pellet was resuspended in 400 μL ddH2O and all samples were analyzed together by western blot. An aliquot of each supernatant was set aside for DNA purification using a PCR purification kit (Qiagen) and analyzed by agarose gel electrophoresis. […]

The target in experiment [2] is T1, HMGB1. Kind of experiment: Release assay of HMGB1 in THP-1 cells. The class given is cell-based. Also on record: endogenous in cells. Particulars: PMA-treated THP-1 cells, LPS plus nigericin. On the procedure: as §1

With “PRM1: human protamine PRM1, a basic protein involved in sperm DNA compaction (ARYRCCRSQSRSRYYRQRQRSRRRRRRSCQTRRRAMRCCRPRYRPRCRRH; UniProt P04553 2-51, looked up) [reference compound]”, the “Effect on chromatin appearance” value in the experiment with cellular chromatin is listed as “did not affect chromatin appearance”.

B1: recombinant protein VII: Ad5 protein VII with C-terminal hexahistidine tag, purified from E. coli (protein)
chain: AKKRSDQHPVRVRGHYRAPWGAHKRGRTGRTTVDDAIDAVVEEARNYTPTPPPVSTVDAAIQTVVRGARRYAKMKRRRRRVARRHRRRPGTAAQRAAAALLNRARRTGRRAAMRAARRLAAGIVTVPPRSRRRAAAAAAAAISAMTQGRRGNVYWVRDSVSGLRVPVRTRPPRN
modifications: left off: small tags and cut ends
notes: Ad5 protein VII with C-terminal hexahistidine tag, purified from E. coli
As to B1, the “Direct binding of recombinant protein VII to HMGB1 in vitro” value with HMGB1 [1] was “Direct binding”. In the experiment with DNA, the DNA binding entry was “binds to DNA”.

B2: protein VII-GFP (protein)
chain: AKKRSDQHPVRVRGHYRAPWGAHKRGRTGRTTVDDAIDAVVEEARNYTPTPPPVSTVDAAIQTVVRGARRYAKMKRRRRRVARRHRRRPGTAAQRAAAALLNRARRTGRRAAMRAARRLAAGIVTVPPRSRRRAAAAAAAAISAMTQGRRGNVYWVRDSVSGLRVPVRTRPPRN
modifications: left off: large carriers
Regarding B2, the HMGB2 in supernatants entry in the experiment with HMGB2 is “sufficient to inhibit HMGB1 and HMGB2 release”. In the experiment with LPS induced lung injury, the “HMGB1 in BAL fluid” value is “decreases HMGB1” and the “Neutrophils in BAL fluid” value was “significantly fewer”. Moreover, in the experiment with mouse HMGB1, the “Relocalization of mouse HMGB1” value is “sufficient to relocalize mouse HMGB1” and the “Retention of mouse HMGB1 in the high salt fraction” value is given as “sufficient to retain mouse HMGB1 in the high salt fraction”. Further, the HMGB1 in supernatants result in the experiment with HMGB1 [2] is “sufficient to inhibit HMGB1 and HMGB2 release”.
